Assay results published in patent publication US20200199647A1 (published 2020).

B1: R15B^C (human PPP1R15B amino acids 636-698, N-terminal MBP-tag, C-terminal His6-tag) (other, not shown: large carriers)
chain: VKRKKVTFLEEVTEYYISGDEDRKGPWEEFARDGCRFQKRIQETEDAIGYCLTFEHRERMFNRHHHHHH
notes: range 636-698; also called R15B^636-698; carboxy-terminal fragment of R15B
B2: R15B^N (human PPP1R15B amino acids 340-635, N-terminal MBP-tag, C-terminal His6-tag) (other, not shown: large carriers)
chain: RDNPTQFVPAAGDIPGNTQESTEEKIELLTTEVPLALEEESPSEGCPSSEIPMEKEPGEGRISVVDYSYLEGDLPISARPACSNKLIDYILGGASSDLETSSDPEGEDWDEEAEDDGFDSDSSLSDSDLEQDPEGLHLWNSFCSVDPYNPQNFTATIQTAARIVPEEPSDSEKDLSGKSDLENSSQSGSLPETPEHSSGEEDDWESSADEAESLKLWNSFCNSDDPYNPLNFKAPFQTSGENEKGCRDSKTPSESIVAISECHTLLSCKVQLLGSQESECPDSVQRDVLSGGRHTHHHHHHH
notes: range 340-635; also called R15B^340-635; amino-terminal fragment of R15B

Columns and labels:
[1] = target: T1, PP1c (human PP1cα amino acids 7-330, N-terminal Thio6/His6 tag) (human, UniProt P62136 7-330); assay: thermophoresis (MST), labelled PP1c
T1 construct: range 7-330; Recombinant, from E. coli with GroEL/GroES and MnCl2; In thermophoresis it was labelled with the Monolith NT Red-NHS kit; also called protein phosphatase 1c; Thio6/His6-PP1c

[2] = target: T1, PP1c (human PP1cα amino acids 7-330, …); assay: thermophoresis, labelled PP1c, unlabelled fragment titrated

T1 sequence (P62136 other isoform, or with tags, fused parts or gaps): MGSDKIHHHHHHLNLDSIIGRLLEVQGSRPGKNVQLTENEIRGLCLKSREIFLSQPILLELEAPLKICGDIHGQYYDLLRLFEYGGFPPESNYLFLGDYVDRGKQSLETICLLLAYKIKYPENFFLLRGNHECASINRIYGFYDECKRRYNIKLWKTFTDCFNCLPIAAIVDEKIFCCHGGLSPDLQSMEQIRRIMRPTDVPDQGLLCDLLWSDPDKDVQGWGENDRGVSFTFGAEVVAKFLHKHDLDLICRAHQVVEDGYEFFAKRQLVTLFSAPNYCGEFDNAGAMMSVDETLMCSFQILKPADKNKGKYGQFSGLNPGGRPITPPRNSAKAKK

Row | Binder | binding result [1] | binding result [2]
1 | B1 | binds | 
2 | B2 |  | no binding
